Source: patent US20260355310A1, “TREATMENT OF IGA NEPHROPATHY USING AN ENDOTHELIN RECEPTOR ANTAGONIST AND APRIL BINDING ANTIBODY” (CHINOOK THERAPEUTICS, INC., priority 2022, published 2026)

Assays:
[1] = Oxidation reduction potential; format: physicochemical
[2] = test system: endothelin A (ETA) receptor; conditions: cited from earlier work
ETB receptor = conditions: Wu-Wong et al. 2002; cited from earlier work
[3] = test system: patients with diabetic kidney disease (DKD); conditions: Heerspink et al. 2019; cited from earlier work
IgA nephropathy patients = conditions: DAPA-CKD subanalysis; Wheeler et al. 2021; cited from earlier work
[4] = test system: human B cell maturation antigen (BCMA) / human APRIL; assay: Blocking of APRIL binding to BCMA
[5] = test system: transmembrane activator and calcium modulator and cyclophilin ligand interactor (TACI) / human APRIL; assay: Blocking of APRIL binding to TACI
BAFF = assay: Binding to BAFF; conditions: BION-1301
healthy human volunteers = assay: Immunoglobulin levels in healthy volunteers; format: in vivo
Description: (§1) A humanized APRIL antagonistic monoclonal antibody (anti-APRIL antibody, as described herein) is in development for the treatment of IgAN, having undergone clinical trials in healthy volunteers (see clinicaltrials.gov NCT03945318). […] In addition, this blockade reduced Gd-IgAQ1 in healthy human volunteers. Consequently, it is expected that blockade of APRIL in patients with IgAN will lead to a reduction in levels of IgA, IgG, and IgM and corresponding reductions in gd-IgA1, auto-antibodies to gd-IgA1, immune complex deposition and renal damage.

[6] = test system: healthy cynomolgus monkeys; assay: Immunoglobulin levels in healthy cynomolgus monkeys; format: in vivo
Description: as §1

patients with IgAN = assay: Phase 1/2 clinical study in patients with IgAN, interim results; format: in vivo, human
Description: BION-1301 has been studied in adults with relapsed or refractory multiple myeloma as well as healthy volunteers (HVs) and adults with IgAN. Since the initiation of the BION-1301 clinical program through 26 Jul. 2022, a total of 153 adults have been enrolled in 5 clinical studies. […] Gd-IgA1, and proteinuria (as measured by areduction in UPCR).
BION-1301 has been studied in adults with relapsed or refractory multiple myeloma as well as healthy volunteers (HVs) and adults with IgAN. Since the initiation of the BION-1301 clinical program through 26 Jul. 2022, a total of 153 adults have been enrolled in 5 clinical studies.

[7] = test system: human B cell maturation antigen (BCMA) / human APRIL; conditions: receptors on lymphocytes; Guadagnoli 2011; cited from earlier work
[8] = test system: transmembrane activator and calcium modulator and cyclophilin ligand interactor (TACI) / human APRIL; conditions: receptors on lymphocytes; Guadagnoli 2011; cited from earlier work
[9] = IV 450 mg Q2W, patients with IgAN, interim results
[10] = SC 600 mg Q2W after at least 24 weeks of IV administration

Question: Which results are given for `CCCCN(CCCC)C(=O)CN1C[C@H](c2ccc3c(c2)OCO3)[C@@H](C(=O)O)[C@@H]1c1ccc(OC)cc1` [Atrasentan, (2R,3R,4S)-4-(1,3-benzodioxol-5-yl)-1-[2-(dibutylamino)-2-oxoethyl]-2-(4-methoxyphenyl)pyrrolidine-3-carboxylic acid]?
Answer: oxidation reduction potential [1]: about 900 mV; selectivity for ETA relative to ETB ([2]; ETA inhibitor, ETA relative to ETB, literature): about 1,860 times; ETA selectivity ([2]; ETA relative to ETB, Wu-Wong et al. 2002): ~ 1800 x; Ki ([2]; Wu-Wong et al. 2002): ~0.034 nM; Ki (ETB receptor): ~63 nM; risk of renal events (doubling of serum creatinine or end-stage kidney disease) [3]: significantly reducing the risk of renal events

Question: With `CCOc1ccc(Cc2cc([C@@H]3O[C@H](CO)[C@@H](O)[C@H](O)[C@H]3O)ccc2Cl)cc1` [dapagliflozin] as the molecule, how does the “safety and efficacy as addition to standard of care in IgA nephropathy” value (IgA nephropathy patients) read?
Answer: Its value is “may be a safe and effective addition to current standard of care in IgA nephropathy”.

B1: BION-1301: IgG4 humanized monoclonal antibody having CAS Registry No. 2642175-46-8; SEQ ID NO: 28 for the heavy chain and SEQ ID NO: 30 for the light chain (antibody, chains of the INN, looked up, V domains shown)
VH: QVQLVQSGAEVKKPGASVKVSCKASGYTFTDYTIHWVRQATGQGLEWMGWIYPLRGSINYAQKFQGRVTMTADKSISTVYMELSSLRSEDTAVYFCARHGAYYSNAFDYWGQGTLVTVSS
VL: EIVMTQSPATLSVSPGERATLSCRASESVDNDGIRFLHWYQQKPGQAPRLLIYRASTRATGIPARFSGSGSRTEFTLTISSLQSEDFAVYYCQQSNKDPYTFGGGTKVEIK
Question: Which results are given for B1?
Answer: blocks binding of human APRIL to BCMA [4]: blocks the binding; blocks binding of human APRIL to TACI [5]: blocks the binding; binding to BAFF (BAFF): does not bind BAFF; Gd-IgA1 (healthy human volunteers; healthy human volunteers): reduced; levels of IgA (healthy human volunteers; healthy volunteers): significantly reduce the levels of IgA; IgA [6]: significantly lower; IgM [6]: significantly lower; Gd-IgA1 (patients with IgAN; [9]): sustained reductions; free (unbound) APRIL (patients with IgAN; [9]): sustained reductions; proteinuria (as measured by reduction in UPCR) (patients with IgAN; [9]): sustained reductions; tolerability (patients with IgAN; [9]): well-tolerated; BION-1301 exposures after transition to SC dosing (patients with IgAN; [10]): maintained similar BION-1301 exposures; biomarker responses after transition to SC dosing (patients with IgAN; [10]): maintained similar BION-1301 exposures, biomarker responses; proteinuria reductions after transition to SC dosing (patients with IgAN; [10]): maintained similar BION-1301 exposures, biomarker responses and proteinuria reductions; serum BION-1301 concentrations (patients with IgAN; following IV infusion, patients with IgAN vs healthy volunteers at same dose and schedule): appeared comparable to those observed in healthy volunteers at the same dose and schedule; 24-hour UPCR (patients with IgAN; patients treated with BION-1301, on average): reduction in 24-hour UPCR which was evident by 3 months and continue to decline beyond 1 year; blocks interaction of APRIL with BCMA [7]: effectively blocks; blocks interaction of APRIL with TACI [8]: effectively blocks
